Source: PMC7344962 (2020)

Experiments:
[1] = target: T1, major surface antigen 1 (SAG1) of Toxoplasma gondii (Toxoplasma gondii, UniProt P13664 48-336); test: SPR; two-state fit (kd1)
T1 chain: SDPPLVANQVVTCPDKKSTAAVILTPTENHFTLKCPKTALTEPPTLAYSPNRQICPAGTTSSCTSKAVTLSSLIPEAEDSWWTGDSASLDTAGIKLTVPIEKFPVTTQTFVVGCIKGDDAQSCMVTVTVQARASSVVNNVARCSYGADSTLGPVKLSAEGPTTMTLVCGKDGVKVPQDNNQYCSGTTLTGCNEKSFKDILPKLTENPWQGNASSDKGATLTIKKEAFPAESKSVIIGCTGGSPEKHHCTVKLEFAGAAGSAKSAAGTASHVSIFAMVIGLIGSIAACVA

[2] = target: T1, major surface antigen 1 (SAG1) of …; test: SPR; two-state fit (KDapp)
[3] = target: T1, major surface antigen 1 (SAG1) of …; test: SPR
[4] = target: T1, major surface antigen 1 (SAG1) of …; test: SPR; Langmuir 1:1 fit
[5] = target: T1, major surface antigen 1 (SAG1) of …; test: SPR

Row | Binder | koff [1] [s⁻¹] | Kd [2] [nM] | Kd [3] [nM] | Kd [4] [nM] | Kd [5] [nM]
1 | scFv S1A0 (scFv, V domains shown) VH: QVQLQQSGAELVRPGVSVKISCKGSGYTFTDYGMHWVKQSHAKSLEWIGIISTYSGDASYNQKFKGKATMTVDKSSSTAYMELARLTSEDSAIYYCARSSTWYYFDYWGQGTTLTVSS VL: DIQVTQTTSSLSASLGDRVTISCRASQDISNYLNWYQQKPDGTVKLLIYYTSRLHSGVPSRFSGSGSGTDYSLTISNLEQEDIATYFCQQGNTLPYTFGGGTKLEIK | 0.0137 | 181 | – | – | –
2 | scFv S1B4 (scFv, V domains shown) VH: QVQLQQSGAELVRPGTSVKISCKASGYTFTDYGMHWVKQSHAKSLEWIGIISTYSGDASYNQKFKGKATMTVDKSSSTAYMQLSSLTSEDSAVYYCARSSTWYYFDYWGQGTLVTVSA VL: DIQMTQTPSSLSASLGDRVTISCRASQDISNYLNWYQQKPDGTVKLLIYYTSRLHSGVPSRFSGSGSGTDYSLTISNLEPEDIATYYCQQGNTLPYTFGGGTKLEIK | 0.0255 | 329 | 323 | 323 | –
3 | scFv S1C4 (scFv, V domains shown) VH: QVQLQQSGAELVRPGVSVKISCKGSGYTFTDYGMHWVKQRPGHGLEWIGIISTYSGDASYNQKFKGKATMTVDKSSSTAYMELARLTSEDSAIYYCARSSTWYYFDYWGQGTTLTVSS VL: DIQMTQTPSSLSASLGDRVTISCRASQDISNYLNWYQQKPDGTVKLLIYYTSRLHSGVPSRFSGSGSGTDYSLTISNLEPEDIATYYCQQGNTLPYTFGGGTKLEIK | 0.0158 | 59 | 61 | 61 | –
4 | scFv S1A4 (scFv, V domains shown) VH: QVQLQQSGAELVRPGVSVKISCKGSGYTFTDYGMHWVKQSHAKSLEWIGIISTYSGDASYNQKFKGKATMTVDKSSSTAYMELARLTSEDSAIYYCARSSTWYYFDYWGQGTTLTVSS VL: DIQMTQTPSSLSASLGDRVTISCRASQDISNYLNWYQQKPDGTVKLLIYYTSRLHSGVPSRFSGSGSGTDYSLTISNLEPEDIATYYCQQGNTLPYTFGGGTKLEIK | 0.0142 | 117 | 236 | 236 | –
5 | scFv S1D4 (scFv, V domains shown) VH: QVQLQQSGAELVRPGTSVKISCKASGYTFTDYGMHWVKQRPGHGLEWIGIISTYSGDASYNQKFKGKATMTVDKSSSTAYMQLSSLTSEDSAVYYCARSSTWYYFDYWGQGTLVTVSA VL: DIQMTQTPSSLSASLGDRVTISCRASQDISNYLNWYQQKPDGTVKLLIYYTSRLHSGVPSRFSGSGSGTDYSLTISNLEPEDIATYYCQQGNTLPYTFGGGTKLEIK | 0.0183 | 360 | – | 400 | 400
